From patent US20260063625A1, “COMPOSITIONS FOR AND METHODS OF DETECTING FOOD TOXINS” (priority 2022, published 2026)

What was measured:
[1] = format: binding; conditions: 1.1 μM Sxph, 0-20 μM STX
[2] = Fluorescence polarization (FP) binding to fluorescein labeled STX; conditions: […]G = RT ln (KdSxph mutant/KdSxph); T = 298K
Procedure: […]; Measurements were performed at 25° C. on a Synergy H1 microplate reader (BioTek) using the polarization filter setting (excitation 485 nm, emission 528 nm). […]. The dissociation constants were calculated using GraphPad Prism by fitting fluorescence millipolarization (mP=P·10^−3, where P is polarization) as a function of Sxph concentration using the equation: P={(Pbound−Pfree) [Sxph]/(Kd+[Sxph])}+Pfree, where P is the polarization measured at a given Sxph concentration, Pfree is the […], and Pbound is the maximum polarization of Sxph bound by F-STX (Rossi and Taylor, Hansen et al.).

[3] = Isothermal titration calorimetry (ITC) of STX into Sxph; format: binding; conditions: 25° C.
Procedure: ITC measurements were performed at 25° C. using a MicroCal PEAQ-ITC calorimeter (Malvern Panalytical). […]. This STX stock was diluted with the SEC buffer to prepare 100 μM or 300 μM STX solutions having a final buffer composition of 135 mM NaCl, 9 mM HEPES, pH 7.4. […]. The calorimetric experiment settings were: reference power, 5 μcal/s; spacing between injections, 150 s; stir speed 750 rpm; and feedback mode, high. Data were analyzed using MicroCal PEAQ-ITC Analysis Software (Malvern Panalytical) using a single binding site model. The heat of dilution from titrations of 100 μM STX in 135 mM NaCl, 9 mM HEPES, pH 7.4 into 135 mM NaCl, 9 mM HEPES, pH 7.4 was subtracted from each experiment to correct the baseline.

Molecule | DTm ([…]Tm=TmSxph+20 μM toxin−TmSxph), STX [1] | […]G (kcal mol^−1) relative to wild-type RcSxph [2] [kcal/mol] | […]G [3] [kcal/mol] | […]H (kcal mol^−1), binding enthalpy [3] [kcal/mol] | […]S (cal mol^−1 K^−1) [3] [cal mol^−1 K^−1]
D785N: RcSxph mutant D785N (protein) MAPTFQTALFFTIISLSFAAPNAKQVRWCAISDLEQKKCNDLVGSCNVPDITLVCVLRSSTEDCMTAIKDGQADAMFLDSGEVYEASKDPYNLKPIIAEPYSSNRDLQKCLKERQQALAKKMIGHYIPQCDEKGNYQPQQCHGSTGHCWCVNAMGEKISGTNTPPGQTRATCERHELPKCLKERQVALGGDEKVLGRFVPQCDEKGNYEPQQFHGSTGYSWCVNAIGEEIAGTKTPPGKIPATCQKHDLVTTCHYAVAMVKKSSAFQFNQLKGKRSCHSGVSKTDGWKALVTVLVEKKLLSWDGPAKESIQRAMSKFFSVSCIPGATQTNLCKQCKGEEGKNCKNSHDEPYYGNYGAFRCLKEDMGDVAFLRSTALSDEHSEVYELLCPDNTRKPLNKYKECNLGTVPAGTVVTRKISDKTEDINNFLMEAQKRQCKLFSSAHGKDLMFDDSTLQLALLSSEVDAFLYLGVKLFHAMKALTGDAHLPSKNKVRWCTINKLEKMKCDDWSAVSGGAIACTEASCPKGCVKQILKGEADAVKLEVQYMYEALMCGLLPAVEEYHNKDDFGPCKTPGSPYTDFGTLRAVALVKKSNKDINWNNIKGKKSCHTGVGDIAGWVIPVSLIRRQNDNSDIDSFFGESCAPGSDTKSNLCKLCIGDPKNSAANTKCSLSDKEAYYGNQGAFRCLVEKGDVAFVPHTVVFENTDGKNPAVWAKNLKSEDFELLCLDGSRAPVSNYKSCKLSGIPPPAIVTREESISDVVRIVANQQSLYGRKGFEKDMFQLFSSNKGNNLLFNDNTQCLITFNRQPKDIMEDYFGKPYYTTVYGASRSAMSSELISACTIKHC | DTm increases relative to wild-type | -0.30 |  |  | 
D794E: RcSxph mutant D794E (protein) MAPTFQTALFFTIISLSFAAPNAKQVRWCAISDLEQKKCNDLVGSCNVPDITLVCVLRSSTEDCMTAIKDGQADAMFLDSGEVYEASKDPYNLKPIIAEPYSSNRDLQKCLKERQQALAKKMIGHYIPQCDEKGNYQPQQCHGSTGHCWCVNAMGEKISGTNTPPGQTRATCERHELPKCLKERQVALGGDEKVLGRFVPQCDEKGNYEPQQFHGSTGYSWCVNAIGEEIAGTKTPPGKIPATCQKHDLVTTCHYAVAMVKKSSAFQFNQLKGKRSCHSGVSKTDGWKALVTVLVEKKLLSWDGPAKESIQRAMSKFFSVSCIPGATQTNLCKQCKGEEGKNCKNSHDEPYYGNYGAFRCLKEDMGDVAFLRSTALSDEHSEVYELLCPDNTRKPLNKYKECNLGTVPAGTVVTRKISDKTEDINNFLMEAQKRQCKLFSSAHGKDLMFDDSTLQLALLSSEVDAFLYLGVKLFHAMKALTGDAHLPSKNKVRWCTINKLEKMKCDDWSAVSGGAIACTEASCPKGCVKQILKGEADAVKLEVQYMYEALMCGLLPAVEEYHNKDDFGPCKTPGSPYTDFGTLRAVALVKKSNKDINWNNIKGKKSCHTGVGDIAGWVIPVSLIRRQNDNSDIDSFFGESCAPGSDTKSNLCKLCIGDPKNSAANTKCSLSDKEAYYGNQGAFRCLVEKGDVAFVPHTVVFENTDGKNPAVWAKNLKSEDFELLCLDGSRAPVSNYKSCKLSGIPPPAIVTREESISDVVRIVANQQSLYGRKGFEKDMFQLFSSNKGNNLLFNDNTQCLITFDRQPKDIMEEYFGKPYYTTVYGASRSAMSSELISACTIKHC |  | 2.94 | -8.9 ± 0.1 | -11.8 ± 0.0 | −8.9 ± 0.1
Y558A: RcSxph mutant, alanine for tyrosine at position 558 (protein) MAPTFQTALFFTIISLSFAAPNAKQVRWCAISDLEQKKCNDLVGSCNVPDITLVCVLRSSTEDCMTAIKDGQADAMFLDSGEVYEASKDPYNLKPIIAEPYSSNRDLQKCLKERQQALAKKMIGHYIPQCDEKGNYQPQQCHGSTGHCWCVNAMGEKISGTNTPPGQTRATCERHELPKCLKERQVALGGDEKVLGRFVPQCDEKGNYEPQQFHGSTGYSWCVNAIGEEIAGTKTPPGKIPATCQKHDLVTTCHYAVAMVKKSSAFQFNQLKGKRSCHSGVSKTDGWKALVTVLVEKKLLSWDGPAKESIQRAMSKFFSVSCIPGATQTNLCKQCKGEEGKNCKNSHDEPYYGNYGAFRCLKEDMGDVAFLRSTALSDEHSEVYELLCPDNTRKPLNKYKECNLGTVPAGTVVTRKISDKTEDINNFLMEAQKRQCKLFSSAHGKDLMFDDSTLQLALLSSEVDAFLYLGVKLFHAMKALTGDAHLPSKNKVRWCTINKLEKMKCDDWSAVSGGAIACTEASCPKGCVKQILKGEADAVKLEVQYMYEALMCGLLPAVEEYHNKDDFGPCKTPGSPATDFGTLRAVALVKKSNKDINWNNIKGKKSCHTGVGDIAGWVIPVSLIRRQNDNSDIDSFFGESCAPGSDTKSNLCKLCIGDPKNSAANTKCSLSDKEAYYGNQGAFRCLVEKGDVAFVPHTVVFENTDGKNPAVWAKNLKSEDFELLCLDGSRAPVSNYKSCKLSGIPPPAIVTREESISDVVRIVANQQSLYGRKGFEKDMFQLFSSNKGNNLLFNDNTQCLITFDRQPKDIMEDYFGKPYYTTVYGASRSAMSSELISACTIKHC |  | -1.00 | -12.2 ± 0.2 | -15.3 ± 0.0 | −11.1 ± 1.1
E540D: RcSxph mutant E540D (protein) MAPTFQTALFFTIISLSFAAPNAKQVRWCAISDLEQKKCNDLVGSCNVPDITLVCVLRSSTEDCMTAIKDGQADAMFLDSGEVYEASKDPYNLKPIIAEPYSSNRDLQKCLKERQQALAKKMIGHYIPQCDEKGNYQPQQCHGSTGHCWCVNAMGEKISGTNTPPGQTRATCERHELPKCLKERQVALGGDEKVLGRFVPQCDEKGNYEPQQFHGSTGYSWCVNAIGEEIAGTKTPPGKIPATCQKHDLVTTCHYAVAMVKKSSAFQFNQLKGKRSCHSGVSKTDGWKALVTVLVEKKLLSWDGPAKESIQRAMSKFFSVSCIPGATQTNLCKQCKGEEGKNCKNSHDEPYYGNYGAFRCLKEDMGDVAFLRSTALSDEHSEVYELLCPDNTRKPLNKYKECNLGTVPAGTVVTRKISDKTEDINNFLMEAQKRQCKLFSSAHGKDLMFDDSTLQLALLSSEVDAFLYLGVKLFHAMKALTGDAHLPSKNKVRWCTINKLEKMKCDDWSAVSGGAIACTEASCPKGCVKQILKGEADAVKLEVQYMYEALMCGLLPAVDEYHNKDDFGPCKTPGSPYTDFGTLRAVALVKKSNKDINWNNIKGKKSCHTGVGDIAGWVIPVSLIRRQNDNSDIDSFFGESCAPGSDTKSNLCKLCIGDPKNSAANTKCSLSDKEAYYGNQGAFRCLVEKGDVAFVPHTVVFENTDGKNPAVWAKNLKSEDFELLCLDGSRAPVSNYKSCKLSGIPPPAIVTREESISDVVRIVANQQSLYGRKGFEKDMFQLFSSNKGNNLLFNDNTQCLITFDRQPKDIMEDYFGKPYYTTVYGASRSAMSSELISACTIKHC |  | 1.54 | -9.8 ± 0.1 | -16.3 ± 1.7 | −21.9 ± 5.7
F561A: RcSxph mutant F561A (protein) MAPTFQTALFFTIISLSFAAPNAKQVRWCAISDLEQKKCNDLVGSCNVPDITLVCVLRSSTEDCMTAIKDGQADAMFLDSGEVYEASKDPYNLKPIIAEPYSSNRDLQKCLKERQQALAKKMIGHYIPQCDEKGNYQPQQCHGSTGHCWCVNAMGEKISGTNTPPGQTRATCERHELPKCLKERQVALGGDEKVLGRFVPQCDEKGNYEPQQFHGSTGYSWCVNAIGEEIAGTKTPPGKIPATCQKHDLVTTCHYAVAMVKKSSAFQFNQLKGKRSCHSGVSKTDGWKALVTVLVEKKLLSWDGPAKESIQRAMSKFFSVSCIPGATQTNLCKQCKGEEGKNCKNSHDEPYYGNYGAFRCLKEDMGDVAFLRSTALSDEHSEVYELLCPDNTRKPLNKYKECNLGTVPAGTVVTRKISDKTEDINNFLMEAQKRQCKLFSSAHGKDLMFDDSTLQLALLSSEVDAFLYLGVKLFHAMKALTGDAHLPSKNKVRWCTINKLEKMKCDDWSAVSGGAIACTEASCPKGCVKQILKGEADAVKLEVQYMYEALMCGLLPAVEEYHNKDDFGPCKTPGSPYTDAGTLRAVALVKKSNKDINWNNIKGKKSCHTGVGDIAGWVIPVSLIRRQNDNSDIDSFFGESCAPGSDTKSNLCKLCIGDPKNSAANTKCSLSDKEAYYGNQGAFRCLVEKGDVAFVPHTVVFENTDGKNPAVWAKNLKSEDFELLCLDGSRAPVSNYKSCKLSGIPPPAIVTREESISDVVRIVANQQSLYGRKGFEKDMFQLFSSNKGNNLLFNDNTQCLITFDRQPKDIMEDYFGKPYYTTVYGASRSAMSSELISACTIKHC |  | 0.48 | -10.8 ± 0.1 | -12.7 ± 0.2 | −6.6 ± 0.9
